± gives the uncertainty stated by the source.
Assay: amyloid nucleation score (Sup35N fusion, yeast selection) (log enrichment); library NNK1; higher = more nucleation; inactive = no reads after selection
How it was run: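 DiMSum was used to calculate nucleation scores as log enrichment of output over input reads, centred on the mode score of non-aggregating sequences. Sequences with fewer than 100 input reads were not scored. Input and output came from Illumina sequencing of plasmid inserts in psi-negative yeast expressing peptides of 20 random codons fused to Sup35N, induced 24 hours with 100 μM copper sulfate and then grown 7 days at 30°C on medium lacking adenine and uracil.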
Substance MFARLNF has an amyloid nucleation score of 3.98 ± 0.062. For IFWTFRGITMPSC, the amyloid nucleation score was 0.702 ± 0.55. For YFSFLDNGGMPYVVVDYGLC, the amyloid nucleation score was 0.042 ± 0.85. In the case of CLFDATVLNVLYQEIAEPRR, the amyloid nucleation score is reported as “inactive”. In the case of PFTCCAVVPFSVTFSRVLES, the amyloid nucleation score is reported as “inactive”. In the case of VGIEFLYLPFVSSRWVVTKW, the amyloid nucleation score is reported as 0.277 ± 1.4. GPKKTLMFPSFISDSCARKG showed an amyloid nucleation score of 0.535 ± 1.2. For YIFENLARAPMLQ, the amyloid nucleation score was 0.259 ± 0.74. Work on YVCFRVDTCRLVCVRRWLNY yielded an amyloid nucleation score of 0.706 ± 0.51. Substance PWRAGYGRRKLLSEGDFRLS has an amyloid nucleation score of 0.218 ± 0.62. Work on YTYVSMPGR yielded an amyloid nucleation score of -0.358 ± 0.34. IRRRRTNIWGWAIYRAISIY showed an amyloid nucleation score of 0.345 ± 0.4. RCMFAYLRVMDCNGGNVYPV gave an amyloid nucleation score of 0.409 ± 0.21. Substance TLNHRSLCFSSVDILWVWII has an amyloid nucleation score of -0.533 ± 0.9. For WGRNMKYVRTGVGLINDLVR, the amyloid nucleation score was “inactive”. In the case of IISAFISESTYDCGFASWVS, the amyloid nucleation score is reported as -0.187 ± 0.42. MNMVCS gave an amyloid nucleation score of 1.15 ± 0.58. With RIYILIDYSVYFSSIELLHF the amyloid nucleation score was -1.67 ± 1.1. For ESSLLLLDLGELRCYTFCLV, the amyloid nucleation score was -0.944 ± 0.94. In the case of PVMLF, the amyloid nucleation score is reported as 4.33 ± 0.11. VLKCRERRFRIHGHWTRRGP gave an amyloid nucleation score of -0.63 ± 0.47. MDGALSVEFSWGLLSKTRLC gave an amyloid nucleation score of -0.122 ± 0.74. EAGKLL showed an amyloid nucleation score of 0.309 ± 0.32. With SAVWEVVEGDVLMWSYMKSP the amyloid nucleation score was 0.019 ± 0.33. VMVWLGDREAGLCESELGAG gave an amyloid nucleation score of 0.12 ± 0.45. With LMSLVNPTRVSLFFDH the amyloid nucleation score was -0.11 ± 0.68. In the case of NLFTTSSCNLIFSTICFD, the amyloid nucleation score is reported as 7.281 ± 0.067. SACQLFGVMVPEHRRALMVW gave an amyloid nucleation score of 0.018 ± 0.42. For GFSEKQNY, the amyloid nucleation score was 0.383 ± 0.54. With IALLNGNNLSPT the amyloid nucleation score was 9.502 ± 0.052. For WVGLSFDDIKIYSASSN, the amyloid nucleation score was 0.308 ± 0.52. Substance MACVVRVLGVMVHLKMLVGL has an amyloid nucleation score of -1.11 ± 1. GRYILGFE gave an amyloid nucleation score of 2.17 ± 0.17. NHGWVLNSNFYIPRKYSLVR gave an amyloid nucleation score of -1.25 ± 0.48. With LELTC the amyloid nucleation score was 1.6 ± 0.53. For RREVRCSQR, the amyloid nucleation score was -0.559 ± 0.61. With SAIMEVLRMDDTCLWSNWVM the amyloid nucleation score was 0.057 ± 0.37. For DDVGSTRYTTMGEACQGRPA, the amyloid nucleation score was -1.13 ± 0.8. RSSKGFMCMEMCLGWGQSTS gave an amyloid nucleation score of 3.41 ± 0.095. Substance TGYWKSFSSAF has an amyloid nucleation score of 0.072 ± 0.93. Work on HYRFCYCHSTKS yielded an amyloid nucleation score of 1.76 ± 0.42. Work on PVQLRFRSSNIWTLMNQVFI yielded an amyloid nucleation score of 0.612 ± 0.95. Work on RWRLFLRAMSLYDDVSHASA yielded an amyloid nucleation score of 0.287 ± 0.23. In the case of YLDCIYRGKIISIHTGSGIL, the amyloid nucleation score is reported as -0.449 ± 0.29. Substance TLFCSGSNAKAGCSEHYYFC has an amyloid nucleation score of 3.04 ± 0.16. Work on VVEARWNKAMHTNFLNVRES yielded an amyloid nucleation score of 0.601 ± 0.65. For VRSDAVKEARISFCLRSKRF, the amyloid nucleation score was 0.423 ± 1.4. With AKHVLGNHAIRNGSKL the amyloid nucleation score was 0.258 ± 0.3. Work on YTRSVL yielded an amyloid nucleation score of 0.2 ± 0.23. In the case of LHGPWVVYFELSSIFTLTYQ, the amyloid nucleation score is reported as -0.478 ± 0.29. Substance FTSFFVSV has an amyloid nucleation score of -1.91 ± 1.9. With VKVGVCGSVGWLHTGVQSNG the amyloid nucleation score was 0.804 ± 0.3. Substance RAWASVLGSFGIGVSCCGA has an amyloid nucleation score of -0.85 ± 1.2. Substance EVHGFNRCGLKSIRVHKVYA has an amyloid nucleation score of 0.839 ± 0.62. With RTLSWFRRKIIVLYLYYTHS the amyloid nucleation score was -0.272 ± 0.88. In the case of KDEGLTEVFESWISWGW, the amyloid nucleation score is reported as -0.065 ± 0.9. Work on EWVVWVDCRGRYADNVSGGA yielded an amyloid nucleation score of -0.558 ± 0.53. EINESRLYYNSLQAFAFMWA gave an amyloid nucleation score of -0.823 ± 0.57. Substance GSYWWDCFVNGGYEKFCTVP has an amyloid nucleation score of 0.191 ± 0.68. Substance VAGWRPFILLGGPRLNTVRQ has an amyloid nucleation score of 0.407 ± 0.67. Work on GSYGERIGEDVVNFARSYNG yielded an amyloid nucleation score of 0.267 ± 0.38. KIFERRLSMYRSVSFLSRQC gave an amyloid nucleation score of 0.15 ± 0.32. With TMIWFQLRTTLLNYQATVFL the amyloid nucleation score was “inactive”. For RGSRTY, the amyloid nucleation score was 0.17 ± 0.53. Work on LMNVVLISHKSFVYSR yielded an amyloid nucleation score of -1.16 ± 2.7. With WIMRS the amyloid nucleation score was “inactive”. In the case of RNVCIIVVSEW, the amyloid nucleation score is reported as 6.589 ± 0.056. Work on SLMSLLLNFVNLTNNNLSPF yielded an amyloid nucleation score of -2.99 ± 1.6. KCTWTN gave an amyloid nucleation score of 0.255 ± 0.87. With FRVMILLLTEMWSMESNRDL the amyloid nucleation score was 3.4 ± 0.14. In the case of LGRGSAVSSPWVIIRIVNML, the amyloid nucleation score is reported as 0.784 ± 0.72. SSLNLMPQVGEGRHTGV gave an amyloid nucleation score of -0.648 ± 0.46. With FLQCNRNSVGRLVAHLCCAR the amyloid nucleation score was “inactive”. Work on TRGVGYFIREIFGS yielded an amyloid nucleation score of 0.241 ± 1.4. For SRCYMDSIV, the amyloid nucleation score was 0.101 ± 0.36. LAVDMQRF showed an amyloid nucleation score of 0.224 ± 1.4. Substance LKRDVTSVSGY has an amyloid nucleation score of 0.348 ± 0.38. FCSDFKSEYSIWDYWVWHKV showed an amyloid nucleation score of -0.306 ± 0.37. In the case of YLQIWRLSRRSILL, the amyloid nucleation score is reported as “inactive”. Substance VIRFSGVLCMIDL has an amyloid nucleation score of 5.09 ± 0.071. KGDMWMGPNESWVKVNLYRV showed an amyloid nucleation score of 0.039 ± 0.55. Substance LYMPSGNIFG has an amyloid nucleation score of 0.973 ± 0.8. PNFWVRFKYGYLSSLNSRTV gave an amyloid nucleation score of -0.375 ± 0.52. With HMITSLRWSSLRSWTQVWLR the amyloid nucleation score was “inactive”. With QRKPVCSGLTLFHMLNRVTK the amyloid nucleation score was -0.484 ± 0.65. Substance SLTVLCKVFFSCNQAGLLHG has an amyloid nucleation score of 0.17 ± 0.5.
